According to patent US20060257938A1, “Method of screening for drugs that block ligand binding to a lipid binding protein” (priority 2005, published 2006):

Tests used:
Format in all cases: binding
[1] = Probe fluorescence ratio response to palmitic acid relative to ADIFAB2; conditions: response relative to ADIFAB2
Summary of the method: (§1)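 Each fatty acid's response was expressed relative to ADIFAB2, the rI-FABP-L72A probe, as ΔR/ΔRreference. ΔR is the change in the background-corrected two-wavelength intensity ratio R=Fλ1/Fλ2 from its analyte-free baseline R0. Emission was read near about 420-480 nm for unbound and about 495-580 nm for FFA-bound probe.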

[2] = Probe fluorescence ratio response to linolenic acid relative to ADIFAB2; conditions: response relative to ADIFAB2
Summary of the method: as §1

[3] = Probe fluorescence ratio response to linoleic acid relative to ADIFAB2; conditions: response relative to ADIFAB2
Summary of the method: as §1

[4] = Probe fluorescence ratio response to arachidonic acid relative to ADIFAB2; conditions: arachidonic acid; response relative to ADIFAB2
Summary of the method: as §1

[5] = Probe fluorescence ratio response to oleic acid relative to ADIFAB2; conditions: response relative to ADIFAB2
Summary of the method: as §1

B1: 14W 72M 117A (protein, listed as Rattus norvegicus)
chain: AFDGTWKVDRNENWEKFMEKMGINVVKRKLGAHDNLKLTITQEGNKFTVKESSNFRNIDVVFELGVDFAYSMADGTELTGTWTMEGNKLVGKFKRVDNGKELIAVREISGNELIQTATYEGVEAKRIFKKE
modifications: PEPTIDE (1)...(131) wild-type rat intestinal fatty acid binding protein
DR/DR PA [1]: 0.515
DR/DR LNA [2]: 1.286
DR/DR LA [3]: 1.009
DR/DR AA [4]: 0.945
DR/DR OA [5]: 0.706

B2: 36I, 72A (protein, listed as Rattus norvegicus)
chain: AFDGTWKVDRNENYEKFMEKMGINVVKRKLGAHDNIKLTITQEGNKFTVKESSNFRNIDVVFELGVDFAYSAADGTELTGTWTMEGNKLVGKFKRVDNGKELIAVREISGNELIQTYTYEGVEAKRIFKKE
modifications: PEPTIDE (1)...(131) wild-type rat intestinal fatty acid binding protein
DR/DR PA [1]: 0.815
DR/DR LNA [2]: 1.004
DR/DR LA [3]: 0.884
DR/DR AA [4]: 0.812
DR/DR OA [5]: 0.773

B3: 23V, 72A (protein, listed as Rattus norvegicus)
chain: AFDGTWKVDRNENYEKFMEKMGVNVVKRKLGAHDNLKLTITQEGNKFTVKESSNFRNIDVVFELGVDFAYSAADGTELTGTWTMEGNKLVGKFKRVDNGKELIAVREISGNELIQTYTYEGVEAKRIFKKE
modifications: PEPTIDE (1)...(131) wild-type rat intestinal fatty acid binding protein
DR/DR PA [1]: 1.475
DR/DR LNA [2]: 1.351
DR/DR LA [3]: 1.731
DR/DR AA [4]: 1.464
DR/DR OA [5]: 1.561

B4: 104N, 72A (protein, listed as Rattus norvegicus)
chain: AFDGTWKVDRNENYEKFMEKMGINVVKRKLGAHDNLKLTITQEGNKFTVKESSNFRNIDVVFELGVDFAYSAADGTELTGTWTMEGNKLVGKFKRVDNGKELINVREISGNELIQTYTYEGVEAKRIFKKE
modifications: PEPTIDE (1)...(131) wild-type rat intestinal fatty acid binding protein
DR/DR PA [1]: 0.406
DR/DR LNA [2]: 0.391
DR/DR LA [3]: 0.385
DR/DR AA [4]: 1.018
DR/DR OA [5]: 0.408

B5: 31T, 72A (protein, listed as Rattus norvegicus)
chain: AFDGTWKVDRNENYEKFMEKMGINVVKRKLTAHDNLKLTITQEGNKFTVKESSNFRNIDVVFELGVDFAYSAADGTELTGTWTMEGNKLVGKFKRVDNGKELIAVREISGNELIQTYTYEGVEAKRIFKKE
modifications: PEPTIDE (1)...(131) wild-type rat intestinal fatty acid binding protein
DR/DR PA [1]: 0.145
DR/DR LNA [2]: 0.510
DR/DR LA [3]: 0.215
DR/DR AA [4]: 0.143
DR/DR OA [5]: −0.024

B6: 62Y, 72A (protein, listed as Rattus norvegicus)
chain: AFDGTWKVDRNENYEKFMEKMGINVVKRKLGAHDNLKLTITQEGNKFTVKESSNFRNIDVVYELGVDFAYSAADGTELTGTWTMEGNKLVGKFKRVDNGKELIAVREISGNELIQTYTYEGVEAKRIFKKE
modifications: PEPTIDE (1)...(131) wild-type rat intestinal fatty acid binding protein
DR/DR PA [1]: 1.037
DR/DR LNA [2]: 1.395
DR/DR LA [3]: 1.545
DR/DR AA [4]: 1.598
DR/DR OA [5]: 1.439

B7: 23W, 72A (protein, listed as Rattus norvegicus)
chain: AFDGTWKVDRNENYEKFMEKMGWNVVKRKLGAHDNLKLTITQEGNKFTVKESSNFRNIDVVFELGVDFAYSAADGTELTGTWTMEGNKLVGKFKRVDNGKELIAVREISGNELIQTYTYEGVEAKRIFKKE
modifications: PEPTIDE (1)...(131) wild-type rat intestinal fatty acid binding protein
DR/DR PA [1]: 0.492
DR/DR LNA [2]: 0.956
DR/DR LA [3]: 0.794
DR/DR AA [4]: 0.618
DR/DR OA [5]: 0.448

B8: 31V, 72A (protein, listed as Rattus norvegicus)
chain: AFDGTWKVDRNENYEKFMEKMGINVVKRKLVAHDNLKLTITQEGNKFTVKESSNFRNIDVVFELGVDFAYSAADGTELTGTWTMEGNKLVGKFKRVDNGKELIAVREISGNELIQTYTYEGVEAKRIFKKE
modifications: PEPTIDE (1)...(131) wild-type rat intestinal fatty acid binding protein
DR/DR PA [1]: 0.206
DR/DR LNA [2]: 0.776
DR/DR LA [3]: 0.384
DR/DR AA [4]: 0.395
DR/DR OA [5]: 0.081

B9: 62W, 72A (protein, listed as Rattus norvegicus)
chain: AFDGTWKVDRNENYEKFMEKMGINVVKRKLGAHDNLKLTITQEGNKFTVKESSNFRNIDVVWELGVDFAYSAADGTELTGTWTMEGNKLVGKFKRVDNGKELIAVREISGNELIQTYTYEGVEAKRIFKKE
modifications: PEPTIDE (1)...(131) wild-type rat intestinal fatty acid binding protein
DR/DR PA [1]: 1.450
DR/DR LNA [2]: 2.120
DR/DR LA [3]: 2.339
DR/DR AA [4]: 2.206
DR/DR OA [5]: 2.155

B10: 31E, 72A (protein, listed as Rattus norvegicus)
chain: AFDGTWKVDRNENYEKFMEKMGINVVKRKLEAHDNLKLTITQEGNKFTVKESSNFRNIDVVFELGVDFAYSAADGTELTGTWTMEGNKLVGKFKRVDNGKELIAVREISGNELIQTYTYEGVEAKRIFKKE
modifications: PEPTIDE (1)...(131) wild-type rat intestinal fatty acid binding protein
DR/DR PA [1]: 0.223
DR/DR LNA [2]: 0.522
DR/DR LA [3]: 0.430
DR/DR AA [4]: 0.238
DR/DR OA [5]: 0.211

B11: 70Q, 72A (protein, listed as Rattus norvegicus)
chain: AFDGTWKVDRNENYEKFMEKMGINVVKRKLGAHDNLKLTITQEGNKFTVKESSNFRNIDVVFELGVDFAQSAADGTELTGTWTMEGNKLVGKFKRVDNGKELIAVREISGNELIQTYTYEGVEAKRIFKKE
modifications: PEPTIDE (1)...(131) wild-type rat intestinal fatty acid binding protein
DR/DR PA [1]: 0.868
DR/DR LNA [2]: 1.622
DR/DR LA [3]: 1.819
DR/DR AA [4]: 1.546
DR/DR OA [5]: 1.604

B12: 38W, 72A (protein, listed as Rattus norvegicus)
chain: AFDGTWKVDRNENYEKFMEKMGINVVKRKLGAHDNLKWTITQEGNKFTVKESSNFRNIDVVFELGVDFAYSAADGTELTGTWTMEGNKLVGKFKRVDNGKELIAVREISGNELIQTYTYEGVEAKRIFKKE
modifications: PEPTIDE (1)...(131) wild-type rat intestinal fatty acid binding protein
DR/DR PA [1]: 1.552
DR/DR LNA [2]: 1.336
DR/DR LA [3]: 2.413
DR/DR AA [4]: 1.350
DR/DR OA [5]: 1.583

B13: 31F, 72A (protein, listed as Rattus norvegicus)
chain: AFDGTWKVDRNENYEKFMEKMGINVVKRKLFAHDNLKLTITQEGNKFTVKESSNFRNIDVVFELGVDFAYSAADGTELTGTWTMEGNKLVGKFKRVDNGKELIAVREISGNELIQTYTYEGVEAKRIFKKE
modifications: PEPTIDE (1)...(131) wild-type rat intestinal fatty acid binding protein
DR/DR PA [1]: 1.438
DR/DR LNA [2]: 1.647
DR/DR LA [3]: 1.759
DR/DR AA [4]: 1.210
DR/DR OA [5]: 1.331

B14: 36V, 72A (protein, listed as Rattus norvegicus)
chain: AFDGTWKVDRNENYEKFMEKMGINVVKRKLGAHDNVKLTITQEGNKFTVKESSNFRNIDVVFELGVDFAYSAADGTELTGTWTMEGNKLVGKFKRVDNGKELIAVREISGNELIQTYTYEGVEAKRIFKKE
modifications: PEPTIDE (1)...(131) wild-type rat intestinal fatty acid binding protein
DR/DR PA [1]: 0.713
DR/DR LNA [2]: 1.082
DR/DR LA [3]: 1.062
DR/DR AA [4]: 1.026
DR/DR OA [5]: 0.869

B15: 31R, 72A (protein, listed as Rattus norvegicus)
chain: AFDGTWKVDRNENYEKFMEKMGINVVKRKLRAHDNLKLTITQEGNKFTVKESSNFRNIDVVFELGVDFAYSAADGTELTGTWTMEGNKLVGKFKRVDNGKELIAVREISGNELIQTYTYEGVEAKRIFKKE
modifications: PEPTIDE (1)...(131) wild-type rat intestinal fatty acid binding protein
DR/DR PA [1]: 0.342
DR/DR LNA [2]: 0.437
DR/DR LA [3]: 0.405
DR/DR AA [4]: 0.250
DR/DR OA [5]: 0.227

B16: 49I, 72A (protein, listed as Rattus norvegicus)
chain: AFDGTWKVDRNENYEKFMEKMGINVVKRKLGAHDNLKLTITQEGNKFTIKESSNFRNIDVVFELGVDFAYSAADGTELTGTWTMEGNKLVGKFKRVDNGKELIAVREISGNELIQTYTYEGVEAKRIFKKE
modifications: PEPTIDE (1)...(131) wild-type rat intestinal fatty acid binding protein
DR/DR PA [1]: 1.162
DR/DR LNA [2]: 1.820
DR/DR LA [3]: 1.839
DR/DR AA [4]: 1.796
DR/DR OA [5]: 1.804

B17: 31I, 72A (protein, listed as Rattus norvegicus)
chain: AFDGTWKVDRNENYEKFMEKMGINVVKRKLIAHDNLKLTITQEGNKFTVKESSNFRNIDVVFELGVDFAYSAADGTELTGTWTMEGNKLVGKFKRVDNGKELIAVREISGNELIQTYTYEGVEAKRIFKKE
modifications: PEPTIDE (1)...(131) wild-type rat intestinal fatty acid binding protein
DR/DR PA [1]: 0.091
DR/DR LNA [2]: 0.413
DR/DR LA [3]: 0.168
DR/DR AA [4]: 0.303
DR/DR OA [5]: −0.213
